According to patent publication US7763426B2, “Probes and methods for detection of Escheridia coli and antibiotic resistance” (priority 2004, dated 2010):
{Fluorescein} = fluorescein label (binding site for anti-fluorescein Fab-HRP); {Biotin} = biotin (capture probe anchor)

Columns and labels:
Assay type in all cases: binding
bacterial 16S rRNA [1] = test: Species specificity of short probe pairs, 16 sensor array at ambient temperature (Example 5); conditions: for Species detected: ambient temperature hybridization; for Species not detected: * cross-reactivity at a level significantly less than with the target species
[2] = system: 16S rRNA in lysates of uropathogens; test: Species specificity of uropathogen probe pairs with the electrochemical sensor array (Example 1); conditions: probe pairs of Table 1
bacterial 16S rRNA [3] = test: Clinical validity study: UTI Chip on blinded clinical urine specimens
Procedure: Amperometric detection of bacterial 16S rRNA. An overview of the electrochemical sensor detection strategy is presented in panel C of FIG. 1. One ml of bacteria in Luria broth, inoculated clean urine, or clinical urine samples was centrifuged at 10,000×g for 5 min. The supernatant was discarded and the bacteria were lysed by resuspension of the pellet in 10 μl of 1 M NaOH and incubation at room temperature for 5 min. In some experiments, addition of 1M NaOH was preceded by resuspension of the bacterial pellet in 10 μl of 0.1% Triton X-100, 2 mM EDTA, and 1 mg/ml lysozyme (Sigma) in 20 mM Tris-HCl, pH 8.0, and incubation at room temperature for 5 min. 50 μl of the detector probe (0.25 μM) in 2.5% bovine serum albumin (Sigma, St. Louis, Mo.) 1 M phosphate buffer, pH 7.4, were added to the bacterial lysate and incubated for 10 min at 65° C. to allow target-probe hybridization. 4 μl of the bacterial lysate/detector probe mixture was deposited on each of the working electrodes in the sensor array and incubated for 15 min at 65° C. in a humidified chamber. After washing and drying, 4 μl of 0.5 U/ml anti-fluorescein horseradish peroxidase (HRP) Fab fragments (Roche, diluted in 0.5% casein in 10 mM phosphate buffered saline, pH 7.4) were deposited on each of the working electrodes for 15 min. After washing and drying, a prefabricated plastic well manifold (GeneFluidics, Monterey Park, Calif.) was bonded to the sensor array. The sensor array was put into the chip reader (FIG. 18) and 50 μl of 3,3′,5,5′-tetramethylbenzidine (TMB), H2O2 solution (K-Blue Low Activity TMB Substrate, Neogen, Lexington, Ky.) was placed on each of the sensors in the array so as to cover all three electrodes of each sensor. Electrochemical measurements are immediately and simultaneously taken for all 16 sensors. For each array, negative control (NC) sensors were tested including the UNI capture probe, detector probe, and 2.5% bovine serum albumin (Sigma, St, Louis, Mo.) in 1 M phosphate buffer, pH 7.4, instead of bacterial lysate. The entire assay protocol was completed within 45 min from the time when bacterial lysis was commenced. Amperometric current vs. time was measured using a multichannel potentiostat (GeneFluidics). The voltage was fixed at −200 mV (vs. reference), and the electroreduction current was measured at 60 s after the HRP redox reaction reached steady state.
Clinical validity study design. Clinical urine specimens were received from routine urine cultures collected from inpatients and outpatients and submitted to the UCLA Clinical Microbiology Laboratory. Routine plating on tripticase soy agar with 5% sheep blood was performed on each specimen for phenotypic identification and colony counting while an aliquot of each specimen was held at 4° C. overnight. On the day after plating, specimens were selected for inclusion in the study on the basis of a rapid indole test for the purpose of including uropathogens other than Escherichia coli in approximately one-half of the specimens. The other half of the specimens were divided between E. coli-containing specimens and specimens determined to have ““no significant growth” or no growth” (see definitions below). Because most UTIs involve a single uropathogen, specimens determined by the clinical microbiology laboratory to have more than one organism present were excluded. Blinded specimens selected for inclusion in the study were stripped of patient identifiers and any microbiological data before delivery to the research laboratory for testing with the electrochemical sensor array.
Experiments were performed on all specimens using the 16-sensor array ‘UTI Chip’, in which the UNI, EB, EC, PM, KE, PA, and EF capture probes (defined in Tables 1 and 2) were tested in duplicate. The two remaining sensors served as negative controls (including capture and detector probes without bacterial lysate). […]

[4] = specimens with Enterobacter aerogenes
[5] = specimens with Enterobacter cloacae
[6] = specimens with Klebsiella pneumoniae
[7] = specimens with Pseudomonas aeruginosa
[8] = specimens with Serratia marcescens
[9] = specimens with Citrobacter freundii
[10] = specimens with Citrobacter koseri
[11] = specimens with Enterobacteriaceae
[12] = specimens with Escherichia coli
[13] = specimens with Gram-negative bacteria
[14] = specimens with Proteus mirabilis

PA122C (15 mer)/PA107D (15 mer): Pseudomonas aeruginosa probe pair, SEQ ID NO: 50 and 51 (DNA 1 CCCACTTTCTCCCTC; DNA 2 AGGACGTATGCGGTA; DNA 1: 5' {Biotin}, sugars by position and backbone not given here; DNA 2: 3' {Fluorescein}, sugars by position and backbone not given here; listed as Pseudomonas aeruginosa)
cross-reactivity with P. mirabilis 16S (bacterial 16S rRNA [1]; ambient temperature): Weak cross-reactivity | Species detected (bacterial 16S rRNA [1]): Pa | Species not detected (bacterial 16S rRNA [1]; ambient temperature): Ea, Ec, Ef, Kp, Pm*

KP436C (11 mer)/KP425D (11 mer): Klebsiella pneumoniae probe pair, SEQ ID NO: 48 and 49 (DNA 1 CTYAHCGCCTT; DNA 2 CCTCCCCGCTG; DNA 1: 5' {Biotin}, sugars by position, backbone and the base at N not given here; DNA 2: 3' {Fluorescein}, sugars by position and backbone not given here; listed as Klebsiella pneumoniae)
Species detected (bacterial 16S rRNA [1]): Kp | Species not detected (bacterial 16S rRNA [1]; ambient temperature): Ea, Ec, Ef, Pa, Pm

EF187C (20 mer)/EF167D (20 mer): Enterococcus spp. probe pair, SEQ ID NO: 52 and 53 (DNA 1 ACCGCGGGTCCATCCATCAG; DNA 2 CGACACCCGAAAGCGCCTTT; DNA 1: 5' {Biotin}, sugars by position and backbone not given here; DNA 2: 3' {Fluorescein}, sugars by position and backbone not given here; listed as Enterococcus sp.)
Species detected (bacterial 16S rRNA [1]): Ef | Species not detected (bacterial 16S rRNA [1]; ambient temperature): Ea, Ec, Kp, Pa, Pm

EB1275C (23 mer)/EB1252C (23 mer): Enterobacteriaceae probe pair, SEQ ID NO: 54 and 55 (DNA 1 ACTTTATGAGGTCCGCTTGCTCT; DNA 2 CGCGAGGTCGCCTTCCTTTGTAT; DNA 1: DNA, 5' {Biotin}, backbone and methylation of C not given here; DNA 2: DNA, 3' {Fluorescein}, backbone and methylation of C not given here; listed as Enterobacter sp.)
Species detected (bacterial 16S rRNA [1]): Ec, Kp, Pm, Ea | Species not detected (bacterial 16S rRNA [1]; ambient temperature): Pa, Ef

PM197C (21 mer)/PM176D (21 mer): Proteus mirabilis probe pair, SEQ ID NO: 46 and 47 (DNA 1 CATCCGATAGTGCAAGGTCCG; DNA 2 AAGAGCCCCTGCTTTGGTCCG; DNA 1: 5' {Biotin}, sugars by position and backbone not given here; DNA 2: 3' {Fluorescein}, sugars by position and backbone not given here; listed as Proteus mirabilis)
Species detected (bacterial 16S rRNA [1]): Pm | Species not detected (bacterial 16S rRNA [1]; ambient temperature): Ea, Ec, Ef, Kp, Pa

B1: KE: Klebsiella & Enterobacter spp. probe pair: capture SEQ ID NO: 5, detector SEQ ID NO: 6 (nucleic acid, listed as Enterobacter sp.)
DNA 1: GTCAATCGMCRAGGTTATTAACCTYAHCGCCTTCC
DNA 2: CTGAAAGTGCTTTACAACCCGAAGGCCTTCTTCAT
modifications: DNA 1: DNA, 5' {Biotin}, backbone, methylation of C and the base at N not given here; DNA 2: DNA, 5' {Fluorescein}, backbone and methylation of C not given here; Capture probe contains degenerate positions (M, R, Y, H)
Species detected [2]: Ea, El, Ko, Kp | Species not detected [2]: Cf, Ec, Pa, Pm | Mean (range) (bacterial 16S rRNA [3]; [4]): 0.86 (0.37-1.26) log10 units over background | Positive/Total = Percent (bacterial 16S rRNA [3]; [4]): KE 5/5 = 100% | Mean (range) (bacterial 16S rRNA [3]; [5]): 0.34 log10 units over background | Positive/Total = Percent (bacterial 16S rRNA [3]; [5]): KE 1/1 = 100% | Mean (range) (bacterial 16S rRNA [3]; [6]): 1.16 (0.76-1.50) log10 units over background | Positive/Total = Percent (bacterial 16S rRNA [3]; [6]): KE 7/8 = 88%

B2: PA: Pseudomonas aeruginosa probe pair: capture SEQ ID NO: 7, detector SEQ ID NO: 8 (nucleic acid, listed as Pseudomonas aeruginosa)
DNA 1: CCCACTTTCTCCCTCAGGACGTATGCGGTATTAGC
DNA 2: TTCCGGACGTTATCCCCCACTACCAGGCAGATTCC
modifications: DNA 1: DNA, 5' {Biotin}, backbone and methylation of C not given here; DNA 2: DNA, 5' {Fluorescein}, backbone and methylation of C not given here
Species detected [2]: Pa | Species not detected [2]: Ec, Ef, El, Eo, Kp, Pm | Mean (range) (bacterial 16S rRNA [3]; [7]): 0.55 log10 units over background | Positive/Total = Percent (bacterial 16S rRNA [3]; [7]): Pa 1/1 = 100% | Mean (range) (bacterial 16S rRNA [3]; [8]): Pa 0.36 log10 units over background | Positive/Total = Percent (bacterial 16S rRNA [3]; [8]): False Positive

B3: EB: Enterobacteriaceae probe pair: capture SEQ ID NO: 11, detector SEQ ID NO: 12 (nucleic acid, listed as Enterobacter sp.)
DNA 1: CGGACTACGACATACTTTATGAGGTCCGCTTGCTC
DNA 2: GAGGTCGCTTCTCTTTGTATATGCCATTGTAGCAC
modifications: DNA 1: DNA, 5' {Biotin}, backbone and methylation of C not given here; DNA 2: DNA, 5' {Fluorescein}, backbone and methylation of C not given here
Species detected [2]: Cf, Ea, Ec, El, Ko, Kp, Mm, Pm, | Species not detected [2]: Ef, Eo, Pa, Sa, Ss | sensitivity for detection of Gram-negative bacteria in clinical urine specimens (bacterial 16S rRNA [3]): 98% | Positive/Total = Percent (bacterial 16S rRNA [3]; All specimens with bacteria): 46/47 = 98%^2 | Positive/Total = Percent (bacterial 16S rRNA [3]; No Growth specimens): 0/12 = 0% | Positive/Total = Percent (bacterial 16S rRNA [3]; No Significant Growth specimens): 0/8 = 0% | Mean (range) (bacterial 16S rRNA [3]; [9]): 1.32 (1.25-1.38) log10 units over background | Positive/Total = Percent (bacterial 16S rRNA [3]; [9]): 2/2 = 100% | Mean (range) (bacterial 16S rRNA [3]; [10]): 1.29 log10 units over background | Positive/Total = Percent (bacterial 16S rRNA [3]; [10]): 1/1 = 100% | Mean (range) (bacterial 16S rRNA [3]; [4]): 1.20 (0.82-1.52) log10 units over background | Positive/Total = Percent (bacterial 16S rRNA [3]; [4]): 5/5 = 100% | Mean (range) (bacterial 16S rRNA [3]; [5]): 1.08 log10 units over background | Positive/Total = Percent (bacterial 16S rRNA [3]; [5]): 1/1 = 100% | Mean (range) (bacterial 16S rRNA [3]; [11]): 1.17 (0.46-1.60) log10 units over background | Positive/Total = Percent (bacterial 16S rRNA [3]; [11]): 46/47 = 98% | Positive/Total = Percent (bacterial 16S rRNA [3]; specimens with Enterococcus species): 0/8 = 0% | Mean (range) (bacterial 16S rRNA [3]; [12]): 1.17 (0.46-1.60) log10 units over background | Positive/Total = Percent (bacterial 16S rRNA [3]; [12]): 25/26 = 96% | Mean (range) (bacterial 16S rRNA [3]; [13]): 1.17 (0.46-1.60) log10 units over background | Positive/Total = Percent (bacterial 16S rRNA [3]; [13]): 46/47 = 98%^2 | Positive/Total = Percent (bacterial 16S rRNA [3]; specimens with Gram-positive bacteria): 0/10 = 0% | Mean (range) (bacterial 16S rRNA [3]; [6]): 1.13 (0.46-1.13) log10 units over background | Positive/Total = Percent (bacterial 16S rRNA [3]; [6]): 8/8 = 100% | Mean (range) (bacterial 16S rRNA [3]; [14]): 1.14 (0.92-1.45) log10 units over background | Positive/Total = Percent (bacterial 16S rRNA [3]; [14]): 3/3 = 100% | Positive/Total = Percent (bacterial 16S rRNA [3]; [7]): 0/1 = 0% | Mean (range) (bacterial 16S rRNA [3]; [8]): 1.36 log10 units over background | Positive/Total = Percent (bacterial 16S rRNA [3]; [8]): 1/1 = 100% | Positive/Total = Percent (bacterial 16S rRNA [3]; specimens with Staph. saprophyticus): 0/2 = 0%
